Patent publication US20190263889A1
Values joined by “and” are separate entries in the source; they are usually repeats but may differ in a detail not shown here. Equal values may be shown once.

Legend:
[1] = biological target: CTLA-4Fc mutant protein M5 (human (murine residues substituted)); assay: ELISA; binder 0 (blank) on coated target
[2] = biological target: CTLA-4Fc mutant protein M9 (human (murine residues substituted)); assay: ELISA; binder 0 (blank) on coated target
[3] = biological target: CTLA-4Fc mutant protein M4 (human (murine residues substituted)); assay: ELISA; binder 0 (blank) on coated target
[4] = biological target: CTLA-4Fc mutant protein M1 (human (murine residues substituted)); assay: ELISA; binder 0 (blank) on coated target
[5] = biological target: CTLA-4Fc mutant protein M8 (human (murine residues substituted)); assay: ELISA; binder 0 (blank) on coated target
[6] = biological target: CTLA-4Fc mutant protein M10 (human (murine residues substituted)); assay: ELISA; binder 0 (blank) on coated target
[7] = biological target: CTLA-4Fc mutant protein M2 (human (murine residues substituted)); assay: ELISA; binder 0 (blank) on coated target
[8] = biological target: wild type human CTLA-4Fc fusion protein (abatacept) (human); assay: ELISA; binder 0 (blank) on coated target
[9] = biological target: CTLA-4Fc mutant protein M7 (human (murine residues substituted)); assay: ELISA; binder 0 (blank) on coated target
[10] = biological target: CTLA-4Fc mutant protein M3 (human (murine residues substituted)); assay: ELISA; binder 0 (blank) on coated target
[11] = biological target: CTLA-4Fc mutant protein M6 (human (murine residues substituted)); assay: ELISA; binder 0 (blank) on coated target
[12] = biological target: CTLA-4Fc mutant protein M11 (human (murine residues substituted)); assay: ELISA; binder 0 (blank) on coated target
[13] = biological target: CTLA-4Fc mutant protein M11 (human (murine residues substituted)); assay: ELISA, target coated 1 ug/mL, biotinylated binder
[14] = biological target: CTLA-4Fc mutant protein M5 (human (murine residues substituted)); assay: ELISA; binder 1 ug/ml on coated target
[15] = biological target: CTLA-4Fc mutant protein M9 (human (murine residues substituted)); assay: ELISA; binder 1 ug/ml on coated target
[16] = biological target: CTLA-4Fc mutant protein M4 (human (murine residues substituted)); assay: ELISA; binder 1 ug/ml on coated target
[17] = biological target: CTLA-4Fc mutant protein M1 (human (murine residues substituted)); assay: ELISA; binder 1 ug/ml on coated target
[18] = biological target: CTLA-4Fc mutant protein M8 (human (murine residues substituted)); assay: ELISA; binder 1 ug/ml on coated target
[19] = biological target: CTLA-4Fc mutant protein M10 (human (murine residues substituted)); assay: ELISA; binder 1 ug/ml on coated target
[20] = biological target: CTLA-4Fc mutant protein M2 (human (murine residues substituted)); assay: ELISA; binder 1 ug/ml on coated target
[21] = biological target: wild type human CTLA-4Fc fusion protein (abatacept) (human); assay: ELISA; binder 1 ug/ml on coated target
[22] = biological target: CTLA-4Fc mutant protein M7 (human (murine residues substituted)); assay: ELISA; binder 1 ug/ml on coated target
[23] = biological target: CTLA-4Fc mutant protein M3 (human (murine residues substituted)); assay: ELISA; binder 1 ug/ml on coated target
[24] = biological target: CTLA-4Fc mutant protein M6 (human (murine residues substituted)); assay: ELISA; binder 1 ug/ml on coated target
[25] = biological target: CTLA-4Fc mutant protein M11 (human (murine residues substituted)); assay: ELISA; binder 1 ug/ml on coated target
[26] = biological target: CTLA-4Fc mutant protein M5 (human (murine residues substituted)); assay: ELISA; binder 0 (blank) on coated target; remark: listed apart in the source
[27] = biological target: CTLA-4Fc mutant protein M1 (human (murine residues substituted)); assay: ELISA; binder 0 (blank) on coated target; remark: listed apart in the source
[28] = biological target: CTLA-4Fc mutant protein M10 (human (murine residues substituted)); assay: ELISA; binder 0 (blank) on coated target; remark: listed apart in the source
mouse CTLA-4-Fc (mouse) = mouse CTLA-4-Fc (mouse) (UniProt P09793); assay: ELISA; binder 0 (blank) on coated target
[29] = biological target: CTLA-4Fc mutant protein M7 (human (murine residues substituted)); assay: ELISA; binder 0 (blank) on coated target; remark: listed apart in the source
[30] = biological target: CTLA-4Fc mutant protein M3 (human (murine residues substituted)); assay: ELISA; binder 0 (blank) on coated target; remark: listed apart in the source
[31] = biological target: CTLA-4Fc mutant protein M11 (human (murine residues substituted)); assay: ELISA; binder 0 (blank) on coated target; remark: listed apart in the source
[32] = biological target: human IgG1-Fc control (human) [IgG part: P01857]; assay: ELISA; binder 0 (blank) on coated target
[33] = biological target: CTLA-4Fc mutant protein M5 (human (murine residues substituted)); assay: ELISA; binder 10 ng/ml on coated target
[34] = biological target: CTLA-4Fc mutant protein M9 (human (murine residues substituted)); assay: ELISA; binder 10 ng/ml on coated target
[35] = biological target: CTLA-4Fc mutant protein M4 (human (murine residues substituted)); assay: ELISA; binder 10 ng/ml on coated target
[36] = biological target: CTLA-4Fc mutant protein M1 (human (murine residues substituted)); assay: ELISA; binder 10 ng/ml on coated target
[37] = biological target: CTLA-4Fc mutant protein M8 (human (murine residues substituted)); assay: ELISA; binder 10 ng/ml on coated target
[38] = biological target: CTLA-4Fc mutant protein M10 (human (murine residues substituted)); assay: ELISA; binder 10 ng/ml on coated target
[39] = biological target: CTLA-4Fc mutant protein M2 (human (murine residues substituted)); assay: ELISA; binder 10 ng/ml on coated target
[40] = biological target: wild type human CTLA-4Fc fusion protein (abatacept) (human); assay: ELISA; binder 10 ng/ml on coated target
[41] = biological target: CTLA-4Fc mutant protein M7 (human (murine residues substituted)); assay: ELISA; binder 10 ng/ml on coated target
[42] = biological target: CTLA-4Fc mutant protein M3 (human (murine residues substituted)); assay: ELISA; binder 10 ng/ml on coated target
[43] = biological target: CTLA-4Fc mutant protein M6 (human (murine residues substituted)); assay: ELISA; binder 10 ng/ml on coated target

CTLA-4Fc mutant protein M4 (human (murine residues substituted)), sequence (chain, as listed by the source mutant): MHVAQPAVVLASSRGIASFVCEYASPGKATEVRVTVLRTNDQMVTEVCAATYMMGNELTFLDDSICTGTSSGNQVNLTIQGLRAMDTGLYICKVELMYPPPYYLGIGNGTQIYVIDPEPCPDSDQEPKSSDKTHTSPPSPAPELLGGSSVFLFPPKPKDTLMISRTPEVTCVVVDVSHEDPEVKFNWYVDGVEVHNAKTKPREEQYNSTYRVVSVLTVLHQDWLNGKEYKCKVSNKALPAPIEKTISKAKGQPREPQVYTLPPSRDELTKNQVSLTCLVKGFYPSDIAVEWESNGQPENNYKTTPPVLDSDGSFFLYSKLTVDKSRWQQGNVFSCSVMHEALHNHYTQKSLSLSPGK
wild type human CTLA-4Fc fusion protein (abatacept) (human), sequence (chain, as listed by the source limits assumed): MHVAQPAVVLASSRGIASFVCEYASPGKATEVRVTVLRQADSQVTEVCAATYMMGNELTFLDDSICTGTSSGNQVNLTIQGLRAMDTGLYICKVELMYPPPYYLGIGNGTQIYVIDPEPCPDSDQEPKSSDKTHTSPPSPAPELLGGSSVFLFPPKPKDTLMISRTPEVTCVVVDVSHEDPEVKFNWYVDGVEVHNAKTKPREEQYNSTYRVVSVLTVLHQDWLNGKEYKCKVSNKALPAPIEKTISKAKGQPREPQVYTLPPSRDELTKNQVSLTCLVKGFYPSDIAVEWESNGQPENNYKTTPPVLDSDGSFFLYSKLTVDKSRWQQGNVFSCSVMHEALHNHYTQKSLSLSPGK
CTLA-4Fc mutant protein M7 (human (murine residues substituted)), sequence (chain, as listed by the source mutant): as the sequence (chain, as listed by the source limits assumed) above, with D63Y, S64P, I65F, T67S counted along it
CTLA-4Fc mutant protein M6 (human (murine residues substituted)), sequence (chain, as listed by the source mutant): as the sequence (chain, as listed by the source limits assumed) above, with A50T counted along it
CTLA-4Fc mutant protein M2 (human (murine residues substituted)), sequence (chain, as listed by the source mutant): as the sequence (chain, as listed by the source limits assumed) above, with R14H, I16L, V20P counted along it
CTLA-4Fc mutant protein M5 (human (murine residues substituted)), sequence (chain, as listed by the source mutant): as the sequence (chain, as listed by the source limits assumed) above, with Y52F, M53T, M54E, G55K, E57T, L58V, T59G counted along it
CTLA-4Fc mutant protein M9 (human (murine residues substituted)), sequence (chain, as listed by the source mutant): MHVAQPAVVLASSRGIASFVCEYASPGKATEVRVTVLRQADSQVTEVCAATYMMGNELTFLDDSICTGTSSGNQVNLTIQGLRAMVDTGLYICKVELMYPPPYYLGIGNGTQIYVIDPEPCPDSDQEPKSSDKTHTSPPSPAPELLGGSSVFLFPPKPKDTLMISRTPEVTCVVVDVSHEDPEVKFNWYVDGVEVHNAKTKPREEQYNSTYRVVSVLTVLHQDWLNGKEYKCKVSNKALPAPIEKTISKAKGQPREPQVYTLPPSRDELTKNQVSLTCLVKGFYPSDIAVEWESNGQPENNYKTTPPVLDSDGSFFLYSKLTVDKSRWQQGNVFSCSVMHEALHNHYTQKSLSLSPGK
CTLA-4Fc mutant protein M3 (human (murine residues substituted)), sequence (chain, as listed by the source mutant): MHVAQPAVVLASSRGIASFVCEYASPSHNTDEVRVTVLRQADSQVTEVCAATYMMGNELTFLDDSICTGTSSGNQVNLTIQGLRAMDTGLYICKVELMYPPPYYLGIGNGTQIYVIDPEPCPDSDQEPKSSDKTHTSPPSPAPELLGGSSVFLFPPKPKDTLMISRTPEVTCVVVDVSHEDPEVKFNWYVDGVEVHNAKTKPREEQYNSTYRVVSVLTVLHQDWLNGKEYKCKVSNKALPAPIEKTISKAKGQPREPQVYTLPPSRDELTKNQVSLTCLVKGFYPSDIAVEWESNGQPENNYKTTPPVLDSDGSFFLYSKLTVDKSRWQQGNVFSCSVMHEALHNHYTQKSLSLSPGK
CTLA-4Fc mutant protein M8 (human (murine residues substituted)), sequence (chain, as listed by the source mutant): as the sequence (chain, as listed by the source limits assumed) above, with S70F, S71N, G72E, N73S, Q74R counted along it
CTLA-4Fc mutant protein M10 (human (murine residues substituted)), sequence (chain, as listed by the source mutant): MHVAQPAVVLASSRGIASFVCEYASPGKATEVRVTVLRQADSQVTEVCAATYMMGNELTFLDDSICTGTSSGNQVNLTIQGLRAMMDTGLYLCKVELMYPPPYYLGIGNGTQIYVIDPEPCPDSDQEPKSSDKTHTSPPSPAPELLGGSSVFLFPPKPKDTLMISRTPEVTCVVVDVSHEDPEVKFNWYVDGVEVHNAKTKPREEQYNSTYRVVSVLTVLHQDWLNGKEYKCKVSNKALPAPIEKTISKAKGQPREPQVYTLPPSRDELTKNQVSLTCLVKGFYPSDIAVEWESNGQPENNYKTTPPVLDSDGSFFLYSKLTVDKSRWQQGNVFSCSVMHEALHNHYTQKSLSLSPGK
CTLA-4Fc mutant protein M11 (human (murine residues substituted)), sequence (chain, as listed by the source mutant): as the sequence (chain, as listed by the source limits assumed) above, with Y103F, L104V, I106M counted along it
CTLA-4Fc mutant protein M1 (human (murine residues substituted)), sequence (chain, as listed by the source mutant): as the sequence (chain, as listed by the source limits assumed) above, with M1I, H2Q, A4T, A7S counted along it
mouse CTLA-4-Fc (mouse), sequence (P09793 36-161 limits assumed): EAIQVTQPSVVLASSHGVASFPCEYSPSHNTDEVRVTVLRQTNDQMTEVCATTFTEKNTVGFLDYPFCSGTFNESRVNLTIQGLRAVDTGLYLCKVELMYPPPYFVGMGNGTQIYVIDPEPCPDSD

chimeric L3D10 anti-human CTLA-4 antibody
OD450 [1]: 0.189 OD450 and 0.176 OD450 | OD450 [2]: 0.179 OD450 and 0.166 OD450 | OD450 [3]: 0.184 OD450 and 0.176 OD450 | OD450 [4]: 0.196 OD450 and 0.187 OD450 | OD450 [5]: 0.187 OD450 and 0.17 OD450 | OD450 [6]: 0.179 OD450 and 0.166 OD450 | OD450 [7]: 0.2 OD450 and 0.185 OD450 | OD450 [8]: 0.202 OD450 and 0.195 OD450 | OD450 [9]: 0.198 OD450 and 0.176 OD450 | OD450 [10]: 0.187 OD450 and 0.18 OD450 | OD450 [11]: 0.192 OD450 and 0.176 OD450 | OD450 [12]: 0.183 OD450 and 0.167 OD450 | fold reduction of binding against WT CTLA-4Fc [13]: 100 fold | OD450 [14]: 3.02 OD450 and 3.03 OD450 | OD450 [15]: 0.916 OD450 | OD450 [16]: 2.65 OD450 and 2.66 OD450 | OD450 [17]: 3.27 OD450 and 2.97 OD450 | OD450 [18]: 3.14 OD450 and 3.03 OD450 | OD450 [19]: 0.804 OD450 and 0.868 OD450 | OD450 [20]: 2.39 OD450 and 2.62 OD450 | OD450 [21]: 3.37 OD450 and 3.11 OD450 | OD450 [22]: 3.15 OD450 and 2.99 OD450 | OD450 [23]: 3.18 OD450 and 3.12 OD450 | OD450 [24]: 3.09 OD450 and 3.07 OD450 | OD450 [25]: 2.84 OD450 and 2.98 OD450 | OD450 [26]: 0.177 OD450 and 0.229 OD450 | OD450 [27]: 0.222 OD450 | OD450 [28]: 0.215 OD450 and 0.114 OD450 | OD450 (mouse CTLA-4-Fc (mouse)): 0.19 OD450 and 0.189 OD450 | OD450 [29]: 0.186 OD450 and 0.142 OD450 | OD450 [30]: 0.183 OD450 and 0.167 OD450 | OD450 [31]: 0.171 OD450 and 0.155 OD450 | OD450 [32]: 0.198 OD450 and 0.184 OD450 | OD450 [33]: 1.54 OD450 and 1.37 OD450 | OD450 [34]: 0.18 OD450 and 0.171 OD450 | OD450 [35]: 0.507 OD450 and 0.356 OD450 | OD450 [36]: 2.47 OD450 and 2.43 OD450 | OD450 [37]: 1.23 OD450 and 1.24 OD450 | OD450 [38]: 0.18 OD450 and 0.169 OD450 | OD450 [39]: 0.375 OD450 and 0.317 OD450 | OD450 [40]: 1.43 OD450 and 1.52 OD450 | OD450 [41]: 0.714 OD450 and 0.738 OD450 | OD450 [42]: 0.62 OD450 and 0.587 OD450 | OD450 [43]: 1.03 OD450 and 0.976 OD450
